Experiments:
[1] = target: T1, cynomolgus monkey 4-1BB on CHO-K1 cells (cynomolgus monkey); experiment: FACS; FIG. 12B
T1 chain: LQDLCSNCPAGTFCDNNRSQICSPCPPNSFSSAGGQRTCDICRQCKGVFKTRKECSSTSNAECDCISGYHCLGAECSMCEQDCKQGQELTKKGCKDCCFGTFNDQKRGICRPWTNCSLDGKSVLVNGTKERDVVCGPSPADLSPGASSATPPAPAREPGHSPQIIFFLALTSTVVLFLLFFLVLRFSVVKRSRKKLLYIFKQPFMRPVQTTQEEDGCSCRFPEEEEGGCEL

[2] = target: T1, cynomolgus monkey 4-1BB on CHO-K1 cells; experiment: FACS; FIG. 12L
[3] = target: T1, cynomolgus monkey 4-1BB on CHO-K1 cells; experiment: FACS; FIG. 12K
[4] = target: T1, cynomolgus monkey 4-1BB on CHO-K1 cells; experiment: FACS; FIG. 21A
[5] = target: T1, cynomolgus monkey 4-1BB on CHO-K1 cells; experiment: FACS; FIG. 12I
[6] = target: T1, cynomolgus monkey 4-1BB on CHO-K1 cells; experiment: FACS; FIG. 12A
[7] = target: T1, cynomolgus monkey 4-1BB on CHO-K1 cells; experiment: FACS; FIG. 12H
[8] = target: T1, cynomolgus monkey 4-1BB on CHO-K1 cells; experiment: FACS; FIG. 12E
[9] = target: T1, cynomolgus monkey 4-1BB on CHO-K1 cells; experiment: FACS
[10] = target: T1, cynomolgus monkey 4-1BB on CHO-K1 cells; experiment: FACS; FIG. 12F
[11] = target: T1, cynomolgus monkey 4-1BB on CHO-K1 cells; experiment: FACS
[12] = target: T1, cynomolgus monkey 4-1BB on CHO-K1 cells; experiment: FACS; FIG. 12D
[13] = target: T1, cynomolgus monkey 4-1BB on CHO-K1 cells; experiment: FACS; FIG. 12J
[14] = target: T1, cynomolgus monkey 4-1BB on CHO-K1 cells; experiment: FACS; FIG. 12C
[15] = target: T1, cynomolgus monkey 4-1BB on CHO-K1 cells; experiment: FACS; FIG. 21B

EC50 [1]: 3.46 nM | EC50 [2]: 0.425 nM | EC50 [3]: 0.503 nM | EC50 [4]: 1.34 nM | EC50 [5]: 0.378 nM | EC50 [6]: 3.46 nM | EC50 [7]: 0.393 nM | EC50 [8]: 3.46 nM | EC50 [9]: 0.337 nM | EC50 [10]: 3.46 nM | EC50 [11]: 0.347 nM | EC50 [12]: 3.46 nM | EC50 [13]: 0.435 nM | EC50 [14]: 3.46 nM | EC50 [15]: 0.984 nM
B1: Utomilumab (antibody, V domains shown)
VH: EVQLVQSGAEVKKPGESLRISCKGSGYSFSTYWISWVRQMPGKGLEWMGKIYPGDSYTNYSPSFQGQVTISADKSISTAYLQWSSLKASDTAMYYCARGYGIFDYWGQGTLVTVSS
VL: SYELTQPPSVSVSPGQTASITCSGDNIGDQYAHWYQQKPGQSPVLVIYQDKNRPSGIPERFSGSNSGNTATLTISGTQAMDEADYYCATYTGFGSLAVFGGGTKLTVLG
